{"source": "patent US10357539B2", "about": "“Use of peptides that block metadherin-SND1 interaction as treatment for cancer” (THE TRUSTEES OF PRINCETON UNIVERSITY, priority 2014, dated 2019)", "molecules": {"B1": {"name": "R316E: SND1 mutation located outside the interface, negative control (protein)", "chain": "VPTVQRGIIKMVLSGCAIIVRGQPRGGPPPERQINLSNIRAGNLARRAAATQPDAKDTPDEPWAFPAREFLRKKLIGKEVCFTIENKTPQGREYGMIYLGKDTNGENIAESLVAEGLATRREGMRANNPEQNRLSECEEQAKAAKKGMWSEGNGSHTIRDLKYTIENPRHFVDSHHQKPVNAIIEHVRDGSVVRALLLPDYYLVTVMLSGIKCPTFRREADGSETPEPFAAEAKFFTESRLLQRDVQIILESCHNQNILGTILHPNGNITELLLKEGFARCVDWSIAVYTRGAEKLRAAEEFAKERRLRIWRDYVAPTANLDQK", "modifications": "left off: small tags and cut ends", "notes": "SND1 mutation located outside the interface, negative control"}, "B2": {"name": "Δ39-43: SND1 with deletion in the SN1 Lβ2-β3 loop (Δ39-43) (protein)", "chain": "VPTVQRGIIKMVLSGCAIIVRGQPPERQINLSNIRAGNLARRAAATQPDAKDTPDEPWAFPAREFLRKKLIGKEVCFTIENKTPQGREYGMIYLGKDTNGENIAESLVAEGLATRREGMRANNPEQNRLSECEEQAKAAKKGMWSEGNGSHTIRDLKYTIENPRHFVDSHHQKPVNAIIEHVRDGSVVRALLLPDYYLVTVMLSGIKCPTFRREADGSETPEPFAAEAKFFTESRLLQRDVQIILESCHNQNILGTILHPNGNITELLLKEGFARCVDWSIAVYTRGAEKLRAAERFAKERRLRIWRDYVAPTANLDQK", "modifications": "left off: small tags and cut ends"}, "B3": {"name": "R255E: SND1 mutant R255E (protein, listed as Homo sapiens)", "chain": "MASSAQSGGSSGGPAVPTVQRGIIKMVLSGCAIIVRGQPRGGPPPERQINLSNIRAGNLARRAAATQPDAKDTPDEPWAFPAREFLRKKLIGKEVCFTIENKTPQGREYGMIYLGKDTNGENIAESLVAEGLATRREGMRANNPEQNRLSECEEQAKAAKKGMWSEGNGSHTIRDLKYTIENPRHFVDSHHQKPVNAIIEHVRDGSVVRALLLPDYYLVTVMLSGIKCPTFRREADGSETPEPFAAEAKFFTESELLQRDVQIILESCHNQNILGTILHPNGNITELLLKEGFARCVDWSIAVYTRGAEKLRAAERFAKERRLRIWRDYVAPTANLDQKDKQFVAKVMQVLNADAIVVKLNSGDYKTIHLSSIRPPRLEGENTQDKNKKLRPLYDIPYMFEAREFLRKKLIGKKVNVTVDYIRPASPATETVPAFSERTCATVTIGGINIAEALVSKGLATVIRYRQDDDQRSSHYDELLAAEARAIKNGKGLHSKKEVPIHRVADISGDTQKAKQFLPFLQRAGRSEAVVEYVFSGSRLKLYLPKETCLITFLLAGIECPRGARNLPGLVQEGEPFSEEATLFTKELVLQREVEVEVESMDKAGNFIGWLHIDGANLSVLLVEHALSKVHFTAERSSYYKSLLSAEEAAKQKKEKVWAHYEEQPVEEVMPVLEEKERSASYKPVFVTEITDDLHFYVQDVETGTQLEKLMENMRNDIASHPPVEGSYAPRRGEFCIAKFVDGEWYRARVEKVESPAKIHVFYIDYGNREVLPSTRLGTLSPAFSTRVLPAQATEYAFAFIQVPQDDDARTDAVDSVVRDIQNTQCLLNVEHLSAGCPHVTLQFADSKGDVGLGLVKEGLVMVEVRKEKQFQKVITEYLNAQESAKSARLNLWRYGDFRADDADEFGYSR"}, "B4": {"name": "R324E: SND1 mutant R324E (protein, listed as Homo sapiens)", "chain": "B3 chain with E255R, R324E"}, "B5": {"name": "F250A: SND1 mutant F250A (protein, listed as Homo sapiens)", "chain": "B3 chain with F250A, E255R"}, "B6": {"name": "WT HA-SND1: full-length HA-tagged wild-type human SND1 (protein)", "chain": "B3 chain with E255R"}}, "note": "Substitutions are numbered along the chain they refer to. Numbers in names are those of the source."}
{"biological_target": "T1, MTDH (364-582) (Homo sapiens, UniProt Q86UE4)", "T1 construct": "made in house; host or cells: E. coli DH5α", "T1 sequence (Q86UE4 364-582)": "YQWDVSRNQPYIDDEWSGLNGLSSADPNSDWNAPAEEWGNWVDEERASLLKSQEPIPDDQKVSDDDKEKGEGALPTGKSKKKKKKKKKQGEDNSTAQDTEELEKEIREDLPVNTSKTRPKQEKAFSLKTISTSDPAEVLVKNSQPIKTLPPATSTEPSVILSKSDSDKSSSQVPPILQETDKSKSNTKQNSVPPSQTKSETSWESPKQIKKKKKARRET", "experiment": "GST-mediated pull-down of SND1 constructs and mutants by GST-tagged MTDH (364-582)", "type": "binding", "settings": "SND1 mutants in SND1 (16-339)", "text": "(§1) (FIG. 22A) In vitro pull-down of SND1 (16-339) by GST-tagged MTDH (364-582) harboring WT or mutant sequence. The proteins bound to GS4B were examined on SDS-PAGE and visualized by Coomassie blue staining. (FIG. 22B) In vitro pull-down of WT and mutant SND1 (16-339) by GST-tagged MTDH (364-582). The bound proteins were examined as in (FIG. 22A). For both (FIG. 22A) and (FIG. 22B), experiments were repeated three times; representative results are shown. The normalized percentage of binding was averaged from three experiments; mean±SEM was shown below the data. (FIG. 22C) HEK293T cells were transfected with human HA-SND1, WT Myc-MTDH or Myc-MTDH with indicated single point mutation. Lysates were immunoprecipitated with anti-Myc antibody and immunoblotted with the indicated antibodies. (FIG. 22D) HEK293T cells were transfected with human Myc-MTDH, WT HA-SND1 or mutant HA-SND1 with indicated single point mutations or deletions. Lysates were immunoprecipitated with anti-Myc and immunoblotted with the indicated antibodies.\nGST-Mediated Pull-Down Assay: ˜20 μg of GST-MTDH (different truncation forms and site mutants) was bound to 10 μl of glutathione resin via GST tag. The resin was washed with 200 μl assay buffer (25 mM Tris, PH8.0, 150 mM NaCl, 3 mM DTT) three times to remove the excess unbound protein. 15 μg of His-SND1 (16-339) was added to the resin in a 100 μl volume suspended in the assay buffer with 2 mg/ml of BSA. The mixture was washed with 200 μl assay buffer twice before examined by SDS-PAGE, and visualized by Coomassie blue staining. The experiments were repeated 3 times and the ratio of SND1 associated with GST-MTDH was analyzed by ImageJ."}
{"molecule": "B1", "MTDH-binding of SND1 domains and mutants, in vitro": "barely affected MTDH-binding"}
{"molecule": "B2", "MTDH-binding of SND1 domains and mutants, in vitro": "almost completely abolished MTDH-binding"}
{"molecule": "B3", "MTDH-binding of SND1 domains and mutants, in vitro": "almost completely abolished MTDH-binding"}
{"molecule": "B4", "MTDH-binding of SND1 domains and mutants, in vitro": "significantly weakened the MTDH-binding"}
{"molecule": "B5", "MTDH-binding of SND1 domains and mutants, in vitro": "almost completely abolished MTDH-binding"}
{"biological_target": "T2, Myc-MTDH (Homo sapiens, UniProt Q86UE4, A78S/T317A)", "T2 construct": "Full-length HA-tagged SND1 was co-expressed with full-length Myc-tagged wild-type (WT) or mutant MTDH in HEK293T cells; expressed in transfected cells; host or cells: HEK293T", "T2 sequence (Q86UE4 1-582 A78S/T317A)": "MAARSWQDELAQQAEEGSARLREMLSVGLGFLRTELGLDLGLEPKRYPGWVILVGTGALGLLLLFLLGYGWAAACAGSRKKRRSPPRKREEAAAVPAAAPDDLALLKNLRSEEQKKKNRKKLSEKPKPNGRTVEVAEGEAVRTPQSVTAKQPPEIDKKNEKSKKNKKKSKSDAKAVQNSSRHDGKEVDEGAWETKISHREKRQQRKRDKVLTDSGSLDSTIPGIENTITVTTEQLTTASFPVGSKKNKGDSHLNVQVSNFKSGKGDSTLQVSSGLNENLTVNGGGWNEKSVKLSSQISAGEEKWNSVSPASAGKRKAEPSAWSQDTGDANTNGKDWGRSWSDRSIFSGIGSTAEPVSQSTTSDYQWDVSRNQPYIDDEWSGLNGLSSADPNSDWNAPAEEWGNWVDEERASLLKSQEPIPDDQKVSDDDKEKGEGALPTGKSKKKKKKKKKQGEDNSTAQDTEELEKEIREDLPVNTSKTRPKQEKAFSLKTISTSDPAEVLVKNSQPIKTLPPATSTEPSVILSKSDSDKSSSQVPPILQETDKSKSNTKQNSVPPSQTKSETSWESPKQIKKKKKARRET", "experiment": "Co-immunoprecipitation of HA-SND1 (WT or mutant) with Myc-MTDH in HEK293T cells", "type": "cell-based", "settings": "HEK293T cell lysates", "text": "as §1\nImmunoprecipitation and western blot: For in vivo immunoprecipitation (IP) experiments, cultured cells were washed in cold PBS and lysed in lysis buffer (20 mM Tris pH 7.4, 0.15 M NaCl, 1 mM EDTA, 1 mM EGTA, 1% Tx-100, 0.0025 M Na2P2O7, 1 mM β-glycerolphosphate, 1 mM Na3VO4, and 1 mM NaF) with an EDTA-free protease inhibitor mixture (Roche Applied Science) and PMSF. Cell lysates were then incubated on ice for 10 min, centrifuged, and precleared by incubating with protein A/G beads (Santa Cruz Biotechnology) for 1 h at 4° C. For IP bead preparation, 30 μl of protein A/G beads were incubated with 5 μg of antibodies for 2 h at 4° C. IPs were carried out for overnight at 4° C., and beads were centrifuged, washed and subsequently boiled for 5 min in SDS protein loading buffer to elute bound protein. IP lysates were subjected to western blotting with indicated antibodies."}
{"molecule": "B1", "interaction of full-length HA-SND1 (WT or mutant) with Myc-MTDH": "bound readily with Myc-MTDH"}
{"molecule": "B2", "interaction of full-length HA-SND1 (WT or mutant) with Myc-MTDH": "nearly completely abolished MTDH-binding"}
{"molecule": "B3", "interaction of full-length HA-SND1 (WT or mutant) with Myc-MTDH": "nearly completely abolished MTDH-binding"}
{"molecule": "B4", "interaction of full-length HA-SND1 (WT or mutant) with Myc-MTDH": "significantly reduced the binding"}
{"molecule": "B5", "interaction of full-length HA-SND1 (WT or mutant) with Myc-MTDH": "nearly completely abolished MTDH-binding"}
{"molecule": "B6", "interaction of full-length HA-SND1 (WT or mutant) with Myc-MTDH": "bound readily with Myc-MTDH"}
